Test results: IntAct's records for PubMed 22902367

B1: Nectin-1 (Homo sapiens), Q15223 (parent)
chain: MARMGLAGAAGRWWGLALGLTAFFLPGVHSQVVQVNDSMYGFIGTDVVLHCSFANPLPSVKITQVTWQKSTNGSKQNVAIYNPSMGVSVLAPYRERVEFLRPSFTDGTIRLSRLELEDEGVYICEFATFPTGNRESQLNLTVMAKPTNWIEGTQAVLRAKKGQDDKVLVATCTSANGKPPSVVSWETRLKGEAEYQEIRNPNGTVTVISRYRLVPSREAHQQSLACIVNYHMDRFKESLTLNVQYEPEVTIEGFDGNWYLQRMDVKLTCKADANPPATEYHWTTLNGSLPKGVEAQNRTLFFKGPINYSLAGTYICEATNPIGTRSGQVEVNITEFPYTPSPPEHGRRAGPVPTAIIGGVAGSILLVLIVVGGIVVALRRRRHTFKGDYSTKKHVYGNGYSKAGIPQHHPPMAQNLQYPDDSDDEKKAGPLGGSSYEEEEEEEEGGGGGERKVGGPHPKYDEDAKRPYFTVDEAEARQDGYGDRTLGYQYDPEQLDLAENMVSQNDGSFISKKEWYV

Variants of: B1
Conditions: with NECTIN3, Q9NQS3-1
Chain of NECTIN3, Q9NQS3-1 (Q9NQS3 whole entry, looked up): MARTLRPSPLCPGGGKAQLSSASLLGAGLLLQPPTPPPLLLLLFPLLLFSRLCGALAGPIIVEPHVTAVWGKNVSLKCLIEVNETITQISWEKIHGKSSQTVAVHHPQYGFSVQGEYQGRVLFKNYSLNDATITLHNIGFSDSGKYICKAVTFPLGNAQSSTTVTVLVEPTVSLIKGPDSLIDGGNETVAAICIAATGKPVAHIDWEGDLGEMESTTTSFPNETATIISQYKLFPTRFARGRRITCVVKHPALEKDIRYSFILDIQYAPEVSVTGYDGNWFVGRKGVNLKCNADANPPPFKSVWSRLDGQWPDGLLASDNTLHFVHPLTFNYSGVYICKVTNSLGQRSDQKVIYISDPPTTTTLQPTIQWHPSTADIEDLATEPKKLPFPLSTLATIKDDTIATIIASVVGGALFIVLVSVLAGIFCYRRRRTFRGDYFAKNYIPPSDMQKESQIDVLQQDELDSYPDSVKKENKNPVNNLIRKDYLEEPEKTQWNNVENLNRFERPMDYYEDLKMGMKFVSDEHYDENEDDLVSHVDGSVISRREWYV

Q: F129D was tested. Which “effect of a mutation on the interaction” value did it give?
A: disrupting interaction strength

Variants of: B1
Conditions: with nect4_human NECTIN4, Q96NY8
Chain of nect4_human NECTIN4, Q96NY8 (Q96NY8 whole entry): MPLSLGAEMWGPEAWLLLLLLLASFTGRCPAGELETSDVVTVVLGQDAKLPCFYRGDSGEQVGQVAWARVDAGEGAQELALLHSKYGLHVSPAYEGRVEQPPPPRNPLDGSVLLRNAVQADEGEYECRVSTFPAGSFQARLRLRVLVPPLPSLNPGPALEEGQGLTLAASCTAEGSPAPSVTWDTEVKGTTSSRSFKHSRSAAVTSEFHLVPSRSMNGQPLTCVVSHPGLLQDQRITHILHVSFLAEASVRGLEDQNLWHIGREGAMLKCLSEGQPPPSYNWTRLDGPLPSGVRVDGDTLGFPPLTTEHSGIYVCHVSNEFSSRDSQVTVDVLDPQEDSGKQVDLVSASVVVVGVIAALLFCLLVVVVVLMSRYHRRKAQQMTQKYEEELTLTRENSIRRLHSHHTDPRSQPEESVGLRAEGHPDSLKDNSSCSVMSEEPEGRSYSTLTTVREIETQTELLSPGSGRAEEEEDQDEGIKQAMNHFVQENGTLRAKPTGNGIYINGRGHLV

Q: How did the “effect of a mutation on the interaction” value turn out when F129D was run?
A: disrupting interaction strength
